In paper PMC7141136, “Ohr and OhrR Are Critical for Organic Peroxide Resistance and Symbiosis in Azorhizobium caulinodans ORS571”:

Tests used:
Conditions in all cases: protein: recombinant; tags: N-terminal 6xHis (pET-28a); chain copies: 2; label: none (GelRed stain)
OhrR C121S = target: T1, OhrR C121S (Azorhizobium caulinodans ORS571, UniProt A8IEZ4 1-144, C121S); test: EMSA; reducing; 50 mM Tris-HCl pH 8.3, 0.25 M KCl, 2.5 mM DTT, 5 mM MgCl2, 0.05 ug/mL poly(dI-dC), 2.5 mM EDTA, 1% glycerol; 20 nM DNA, 20 uL, 20 min, room temperature; 6% native PAGE in 0.5x TBE
T1 sequence: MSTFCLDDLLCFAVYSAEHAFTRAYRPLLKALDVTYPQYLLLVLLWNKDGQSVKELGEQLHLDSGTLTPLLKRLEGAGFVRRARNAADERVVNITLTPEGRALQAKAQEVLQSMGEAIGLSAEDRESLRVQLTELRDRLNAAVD

OhrR C11S = target: T2, OhrR C11S (Azorhizobium caulinodans ORS571, UniProt A8IEZ4 1-144, C11S); test: as above
T2 sequence: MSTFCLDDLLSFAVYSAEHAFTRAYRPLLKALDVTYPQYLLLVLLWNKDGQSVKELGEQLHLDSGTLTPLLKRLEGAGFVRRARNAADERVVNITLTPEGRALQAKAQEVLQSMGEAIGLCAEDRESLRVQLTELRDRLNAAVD

OhrR C11S C121S = target: T3, OhrR C11S C121S (Azorhizobium caulinodans ORS571, UniProt A8IEZ4 1-144, C11S;C121S); test: EMSA; CuOOH; binding not affected; 50 mM Tris-HCl pH 8.3, 0.25 M KCl, 2.5 mM DTT, 5 mM MgCl2, 0.05 ug/mL poly(dI-dC), 2.5 mM EDTA, 1% glycerol; 20 nM DNA, 20 uL, 20 min, room temperature; 6% native PAGE in 0.5x TBE
T3 sequence: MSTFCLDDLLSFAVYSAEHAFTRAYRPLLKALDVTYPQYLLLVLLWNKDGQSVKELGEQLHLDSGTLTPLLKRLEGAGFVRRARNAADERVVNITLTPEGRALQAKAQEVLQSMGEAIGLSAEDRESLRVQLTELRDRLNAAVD

Measured: binding result

B1: ohr promoter probe (181 bp) (dsDNA)
DNA 1: CAAAGGGTTAGTTTTCCGTTGCGGAAGGTTGGGTGATGTTGACGGTGGTCTGCAAAATAAGTTTGACACAATCAAATTGTGTGCTACTTAAATGGCCATGGAAGCGGCTTGGCCGTTTCTCATCGATTTCTCAAGGCACGAGGATCAAGCGATGTCCGTCGATGTGAAGTACACCACCAAG
DNA 2: CTTGGTGGTGTACTTCACATCGACGGACATCGCTTGATCCTCGTGCCTTGAGAAATCGATGAGAAACGGCCAAGCCGCTTCCATGGCCATTTAAGTAGCACACAATTTGATTGTGTCAAACTTATTTTGCAGACCACCGTCAACATCACCCAACCTTCCGCAACGGAAAACTAACCCTTTG
binds: OhrR C121S | OhrR C11S | OhrR C11S C121S
